One data set concerns CL2. Conditions: pH 7, 2 mM PLP.
Substrate in the data set “purified protein”: NCCCC[C@H](N)C(=O)O
Description: purified protein. Conditions: pH 7, 2 mM PLP.

Consider `NCCCC[C@H](N)C(=O)O` [L-lysine], for which the Km with CL2 was determined as 22.2 ± 5.73 mM.

B1: CadA (Escherichia coli K-12) (protein)
chain: MNVIAILNHMGVYFKEEPIRELHRALERLNFQIVYPNDRDDLLKLIENNARLCGVIFDWDKYNLELCEEISKMNENLPLYAFANTYSTLDVSLNDLRLQISFFEYALGAAEDIANKIKQTTDEYINTILPPLTKALFKYVREGKYTFCTPGHMGGTAFQKSPVGSLFYDFFGPNTMKSDISISVSELGSLLDHSGPHKEAEQYIARVFNADRSYMVTNGTSTANKIVGMYSAPAGSTILIDRNCHKSLTHLMMMSDVTPIYFRPTRNAYGILGGIPQSEFQHATIAKRVKETPNATWPVHAVITNSTYDGLLYNTDFIKKTLDVKSIHFDSAWVPYTNFSPIYEGKCGMSGGRVEGKVIYETQSTHKLLAAFSQASMIHVKGDVNEETFNEAYMMHTTTSPHYGIVASTETAAAMMKGNAGKRLINGSIERAIKFRKEIKRLRTESDGWFFDVWQPDHIDTTECWPLRSDSTWHGFKNIDNEHMYLDPIKVTLLTPGMEKDGTMSDFGIPASIVAKYLDEHGIVVEKTGPYNLLFLFSIGIDKTKALSLLRALTDFKRAFDLNLRVKNMLPSLYREDPEFYENMRIQELAQNIHKLIVHHNLPDLMYRAFEVLPTMVMTPYAAFQKELHGMTEEVYLDEMVGRINANMILPYPPGVPLVMPGEMITEESRPVLEFLQMLCEIGAHYPGFETDIHGAYRQADGRYTVKVLKEESKK
For the molecule B1, the Km in the data set “purified protein” came out at 29.23 ± 9.56 mM.

B2: LdcC (Escherichia coli K-12) (protein)
chain: MNIIAIMGPHGVFYKDEPIKELESALVAQGFQIIWPQNSVDLLKFIEHNPRICGVIFDWDEYSLDLCSDINQLNEYLPLYAFINTHSTMDVSVQDMRMALWFFEYALGQAEDIAIRMRQYTDEYLDNITPPFTKALFTYVKERKYTFCTPGHMGGTAYQKSPVGCLFYDFFGGNTLKADVSISVTELGSLLDHTGPHLEAEEYIARTFGAEQSYIVTNGTSTSNKIVGMYAAPSGSTLLIDRNCHKSLAHLLMMNDVVPVWLKPTRNALGILGGIPRREFTRDSIEEKVAATTQAQWPVHAVITNSTYDGLLYNTDWIKQTLDVPSIHFDSAWVPYTHFHPIYQGKSGMSGERVAGKVIFETQSTHKMLAALSQASLIHIKGEYDEEAFNEAFMMHTTTSPSYPIVASVETAAAMLRGNPGKRLINRSVERALHFRKEVQRLREESDGWFFDIWQPPQVDEAECWPVAPGEQWHGFNDADADHMFLDPVKVTILTPGMDEQGNMSEEGIPAALVAKFLDERGIVVEKTGPYNLLFLFSIGIDKTKAMGLLRGLTEFKRSYDLNLRIKNMLPDLYAEDPDFYRNMRIQDLAQGIHKLIRKHDLPGLMLRAFDTLPEMIMTPHQAWQRQIKGEVETIALEQLVGRVSANMILPYPPGVPLLMPGEMLTKESRTVLDFLLMLCSVGQHYPGFETDIHGAKQDEDGVYRVRVLKMAG
With B2, in the data set “purified protein”, the Km is 18.46 ± 0.89 mM.

Values taken from publication PMC12096693 (Microbial Cell Factories, 2025).
